From FireProtDB (doi:10.1021/bi972994k)

Settings: Saccharolobus solfataricus (strain ATCC 35092 / DSM 1617 / JCM 11322 / P2), Thermal, DSC, glycine-HCl 10 mM, NaCl 100 mM, reversible: yes, whole UniProt chain shown

B1: DNA-binding protein 7d wild type, P39476 (protein)
chain: MATVKFKYKGEEKEVDISKIKKVWRVGKMISFTYDEGGGKTGRGAVSEKDAPKELLQMLEKQKK
Tm (pH 2.3): 64 °C
heat capacity change of unfolding (pH 2.3): 0.48 kcal/mol/K
unfolding enthalpy (calorimetric) (pH 2.3): 40.6 kcal/mol
Tm (pH 2.5): 65.5 °C
heat capacity change of unfolding (pH 2.5): 0.57 kcal/mol/K
unfolding enthalpy (calorimetric) (pH 2.5): 43 kcal/mol
Tm (pH 2.7): 71.1 °C
heat capacity change of unfolding (pH 2.7): 0.57 kcal/mol/K
unfolding enthalpy (calorimetric) (pH 2.7): 46.6 kcal/mol
Tm (pH 2.8): 74 °C
heat capacity change of unfolding (pH 2.8): 0.45 kcal/mol/K
unfolding enthalpy (calorimetric) (pH 2.8): 49 kcal/mol
Tm (pH 2.9): 76.3 °C
heat capacity change of unfolding (pH 2.9): 0.65 kcal/mol/K
unfolding enthalpy (calorimetric) (pH 2.9): 50.2 kcal/mol
Tm (pH 3): 78.8 °C
heat capacity change of unfolding (pH 3): 0.74 kcal/mol/K
unfolding enthalpy (calorimetric) (pH 3): 51.4 kcal/mol
Tm (pH 3.2): 84.2 °C
heat capacity change of unfolding (pH 3.2): 0.72 kcal/mol/K
unfolding enthalpy (calorimetric) (pH 3.2): 55 kcal/mol
Tm (pH 3.6): 90.3 °C
heat capacity change of unfolding (pH 3.6): 0.6 kcal/mol/K
unfolding enthalpy (calorimetric) (pH 3.6): 58.6 kcal/mol
Tm (pH 3.8): 92.4 °C
heat capacity change of unfolding (pH 3.8): 0.69 kcal/mol/K
unfolding enthalpy (calorimetric) (pH 3.8): 59.8 kcal/mol
Tm (pH 4): 95.1 °C
heat capacity change of unfolding (pH 4): 0.55 kcal/mol/K
unfolding enthalpy (calorimetric) (pH 4): 63.3 kcal/mol
